These results are taken from US20060257938A1, “Method of screening for drugs that block ligand binding to a lipid binding protein” (priority 2005, published 2006).

Substitutions are numbered along the chain they refer to.

To fix the notation:
B1: 23P1, 72A (protein, listed as Rattus norvegicus)
chain: AFDGTWKVDRNENYEKFMEKMGPNVVKRKLGAHDNLKLTITQEGNKFTVKESSNFRNIDVVFELGVDFAYSAADGTELTGTWTMEGNKLVGKFKRVDNGKELIAVREISGNELIQTYTYEGVEAKRIFKKE
modifications: PEPTIDE (1)...(131) wild-type rat intestinal fatty acid binding protein
B2: 23R3, 72A (protein, listed as Rattus norvegicus)
chain: B1 chain with P23R
modifications: PEPTIDE (1)...(131) wild-type rat intestinal fatty acid binding protein
B3: 31V2, 72A (protein, listed as Rattus norvegicus)
chain: B1 chain with P23I, G31V
modifications: PEPTIDE (1)...(131) wild-type rat intestinal fatty acid binding protein
B4: 31E3, 72A (protein, listed as Rattus norvegicus)
chain: B1 chain with P23I, G31E
modifications: PEPTIDE (1)...(131) wild-type rat intestinal fatty acid binding protein
B5: 31W2, 72A (protein, listed as Rattus norvegicus)
chain: B1 chain with P23I, G31W
modifications: PEPTIDE (1)...(131) wild-type rat intestinal fatty acid binding protein
B6: 31C1, 72A (protein, listed as Rattus norvegicus)
chain: B1 chain with P23I, G31C
modifications: PEPTIDE (1)...(131) wild-type rat intestinal fatty acid binding protein
B7: 31F2, 72A (protein, listed as Rattus norvegicus)
chain: B1 chain with P23I, G31F
modifications: PEPTIDE (1)...(131) wild-type rat intestinal fatty acid binding protein
B8: 31D2, 72A (protein, listed as Rattus norvegicus)
chain: B1 chain with P23I, G31D
modifications: PEPTIDE (1)...(131) wild-type rat intestinal fatty acid binding protein
B9: 31Q3, 72A (protein, listed as Rattus norvegicus)
chain: B1 chain with P23I, G31Q
modifications: PEPTIDE (1)...(131) wild-type rat intestinal fatty acid binding protein
B10: 31I1, 72A (protein, listed as Rattus norvegicus)
chain: B1 chain with P23I, G31I
modifications: PEPTIDE (1)...(131) wild-type rat intestinal fatty acid binding protein
B11: 31T2, 72A (protein, listed as Rattus norvegicus)
chain: B1 chain with P23I, G31T
modifications: PEPTIDE (1)...(131) wild-type rat intestinal fatty acid binding protein
B12: 23V2, 72A (protein, listed as Rattus norvegicus)
chain: B1 chain with P23V
modifications: PEPTIDE (1)...(131) wild-type rat intestinal fatty acid binding protein
B13: 31M2, 72A (protein, listed as Rattus norvegicus)
chain: B1 chain with P23I, G31M
modifications: PEPTIDE (1)...(131) wild-type rat intestinal fatty acid binding protein
B14: 31P1, 72A (protein, listed as Rattus norvegicus)
chain: B1 chain with P23I, G31P
modifications: PEPTIDE (1)...(131) wild-type rat intestinal fatty acid binding protein
B15: 31N2, 72A (protein, listed as Rattus norvegicus)
chain: B1 chain with P23I, G31N
modifications: PEPTIDE (1)...(131) wild-type rat intestinal fatty acid binding protein
B16: 23W1, 72A (protein, listed as Rattus norvegicus)
chain: B1 chain with P23W
modifications: PEPTIDE (1)...(131) wild-type rat intestinal fatty acid binding protein
B17: 31R1, 72A (protein, listed as Rattus norvegicus)
chain: B1 chain with P23I, G31R
modifications: PEPTIDE (1)...(131) wild-type rat intestinal fatty acid binding protein
B18: 31K2, 72A (protein, listed as Rattus norvegicus)
chain: B1 chain with P23I, G31K
modifications: PEPTIDE (1)...(131) wild-type rat intestinal fatty acid binding protein
B19: 23Y1, 72A (protein, listed as Rattus norvegicus)
chain: B1 chain with P23Y
modifications: PEPTIDE (1)...(131) wild-type rat intestinal fatty acid binding protein
B20: 23T1, 72A (protein, listed as Rattus norvegicus)
chain: B1 chain with P23T
modifications: PEPTIDE (1)...(131) wild-type rat intestinal fatty acid binding protein

One experiment can be described thus: Probe fluorescence ratio response to arachidonic acid relative to ADIFAB2. The format is binding. The following applies: arachidonic acid; response relative to ADIFAB2. The gist of the method:
(§1)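 Each fatty acid's response was expressed relative to ADIFAB2, the rI-FABP-L72A probe, as ΔR/ΔRreference. ΔR is the change in the background-corrected two-wavelength intensity ratio R=Fλ1/Fλ2 from its analyte-free baseline R0. Emission was read near about 420-480 nm for unbound and about 495-580 nm for FFA-bound probe.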
On to B1, for which the “DR/DR AA” value is reported as 1.25.
Same read-out and setting: under B2 stands 0.14; under B3, 0.40; under B4, 0.55.
The same measure, in the same setting: under B5 stands 0.99; under B6, 0.32.
Consider B7, for which the “DR/DR AA” value was 1.41.
Consider B8, for which the “DR/DR AA” value came out at 0.20.
For the molecule B9, the “DR/DR AA” value turned out to be 1.02.
On the same count and under the same terms, the result for B10 reads 0.30; that for B11, 0.65; that for B12, 1.46.
On the same count and under the same terms, the result for B13 reads 0.52; that for B14, 0.25; that for B15, 0.88.
Same read-out and setting: the result for B16 reads 0.62; that for B17, 0.25; that for B18, 0.85.
On to B19, for which the “DR/DR AA” value is 0.49.
The same measure, in the same setting: the result for B20 reads 0.22.

The nature of another experiment: Probe fluorescence ratio response to linolenic acid relative to ADIFAB2. To be noted: response relative to ADIFAB2. The format is binding. The gist of the method: as §1
With B1, the “DR/DR LNA” value was determined as 1.38.
Still for that read-out and setting: under B2 stands 0.14; under B3, 0.78; under B4, 0.82.
Still for that read-out and setting: under B5 stands 1.03; under B6, 0.36.
The same measure, in the same setting: the result for B7 reads 1.62; that for B8, 0.14; that for B9, 1.49.
As to B10, the “DR/DR LNA” value is on record as 0.41.
Same read-out and setting: the result for B11 reads 0.91; that for B12, 1.35.
On the same count and under the same terms, the result for B13 reads 0.57; that for B14, 0.27; that for B15, 1.06.
For B16, the “DR/DR LNA” value worked out at 0.96.
On the same count and under the same terms, under B17 stands 0.44; under B18, 0.90.
Still for that read-out and setting: under B19 stands 0.44; under B20, 0.21.

The nature of the next experiment: Probe fluorescence ratio response to linoleic acid relative to ADIFAB2. The following applies: response relative to ADIFAB2. The format is binding. The gist of the method: as §1
Turning to B1, the “DR/DR LA” value is given as 1.36.
The same measure, in the same setting: the result for B2 reads 0.14; that for B3, 0.38; that for B4, 0.74.
Still for that read-out and setting: the result for B5 reads 1.15.
On the same count and under the same terms, under B6 stands 0.36.
As to B7, the “DR/DR LA” value is 1.76.
The same measure, in the same setting: under B8 stands 0.16.
Still for that read-out and setting: under B9 stands 1.47.
Same read-out and setting: under B10 stands 0.17.
Consider B11, for which the “DR/DR LA” value turned out to be 0.75.
B12: the “DR/DR LA” value is listed as 1.73.
Same read-out and setting: under B13 stands 0.41.
Still for that read-out and setting: under B14 stands 0.30; under B15, 1.04.
The same measure, in the same setting: the result for B16 reads 0.79; that for B17, 0.40.
Consider B18, for which the “DR/DR LA” value turned out to be 0.91.
Still for that read-out and setting: under B19 stands 0.44.
Still for that read-out and setting: the result for B20 reads 0.33.

The nature of the next experiment: Probe fluorescence ratio response to oleic acid relative to ADIFAB2. The following applies: response relative to ADIFAB2. The format is binding. Summed up: as §1
For the molecule B1, the “DR/DR OA” value was 1.24.
On the same count and under the same terms, under B2 stands 0.12.
Still for that read-out and setting: under B3 stands 0.08.
Same read-out and setting: the result for B4 reads 0.50; that for B5, 0.87; that for B6, 0.30.
With B7, the “DR/DR OA” value was 1.43.
Turning to B8, the “DR/DR OA” value was 0.13.
Still for that read-out and setting: under B9 stands 1.31.
B10: the “DR/DR OA” value is reported as −0.21.
Regarding B11, the “DR/DR OA” value is given as 0.53.
As for B12, the “DR/DR OA” value amounted to 1.56.
Same read-out and setting: under B13 stands 1.08; under B14, 0.22; under B15, 0.91.
Regarding B16, the “DR/DR OA” value is on record as 0.45.
Same read-out and setting: the result for B17 reads 0.23; that for B18, 0.97; that for B19, 0.41.
The same measure, in the same setting: the result for B20 reads 0.19.

The next experiment can be described thus: Probe fluorescence ratio response to palmitic acid relative to ADIFAB2. The following applies: response relative to ADIFAB2. The format is binding. Summed up:
as §1
On to B1, for which the “DR/DR PA” value is 0.64.
B2: the “DR/DR PA” value worked out at 0.10.
On the same count and under the same terms, under B3 stands 0.21.
Same read-out and setting: under B4 stands 0.38; under B5, 0.62; under B6, 0.23.
On the same count and under the same terms, under B7 stands 1.21; under B8, 0.06; under B9, 1.04.
B10: the “DR/DR PA” value turned out to be 0.09.
Turning to B11, the “DR/DR PA” value was 0.41.
Same read-out and setting: under B12 stands 1.48; under B13, 0.46.
On the same count and under the same terms, the result for B14 reads 0.23.
Still for that read-out and setting: the result for B15 reads 0.50; that for B16, 0.49.
Take B17: the “DR/DR PA” value is recorded as 0.34.
For the molecule B18, the “DR/DR PA” value turned out to be 0.42.
In the case of B19, the “DR/DR PA” value was 0.28.
In the case of B20, the “DR/DR PA” value is 0.24.
